{"source": "paper PMC10311653", "about": "(2023)", "binders": {"B1": {"name": "Q15Kcr-G8-mFc (Fc fusion)", "chain 1": "EVQLQQSGAELVKPGASVKLSCTASDFNIKDTYIHWVKQRPEQGLEWIGRIDPADGNTKYDPKFQGKATITADTSSNTAYLQLSSLTSEDTAVYYCAIHYYGSFPYWGQGTLVTVSA", "chain 2": "DIVMTQAHKFMSTSVGDRVSITCQASQDVGTAVAWYQQKPGQSPKLLIYWASTRHTGVPDRFTGSGSGTDFTLTISNVQSEDLADYFCQQYSSYPYTFGGGTKLEIK"}}, "biological_target": "hIL-1βQ15G (human)", "sequence (chain, as listed by the source Q15G)": "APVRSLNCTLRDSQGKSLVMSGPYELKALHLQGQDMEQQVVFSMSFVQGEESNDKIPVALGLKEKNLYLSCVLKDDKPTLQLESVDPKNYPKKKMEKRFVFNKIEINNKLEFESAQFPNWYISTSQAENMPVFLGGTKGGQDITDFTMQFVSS", "assay": "ELISA; apparent Kd"}
{"binder": "B1", "values": [{"measurement": "Kd", "value": 27.3, "unit": "nM"}]}
